Key:
ALK 001P = target: T1, ALK 001P; test: SPR, Biacore 8K; receptor-Fc captured on Protein A chip, ligand as analyte
T1 construct: ALK (1-19) is described only as a region comprising a secretory signal, and no cleavage site is stated; Expressed in Expi293 cells and captured on a Protein A chip through its Fc
Description: (§1) Whether or not ALK 001P and LTK 001P obtained in Example 5 had bound to Ligand 001P and Ligand 002P was examined using Biacore 8K instrument (GE Healthcare Japan) by the surface plasmon resonance (SPR) technique.
(§2) ALK 001P and LTK 001P were dissociated (i.e., regenerated) from Protein A coating the sensor chip surface (i.e., regeneration) by injecting 10 mM Glycine-HCl (pH 1.6) at a flow rate of 30 μl/min for 30 seconds. The bond dissociation curve modified by subtracting the baseline value was prepared using Biacore8K Evaluation Software (GE Healthcare Japan).

LTK 001P = target: T2, LTK 001P; test: as above
T2 construct: Expressed in Expi293 cells and captured on a Protein A chip through its Fc
T2 sequence (chain, as listed by the source limits assumed): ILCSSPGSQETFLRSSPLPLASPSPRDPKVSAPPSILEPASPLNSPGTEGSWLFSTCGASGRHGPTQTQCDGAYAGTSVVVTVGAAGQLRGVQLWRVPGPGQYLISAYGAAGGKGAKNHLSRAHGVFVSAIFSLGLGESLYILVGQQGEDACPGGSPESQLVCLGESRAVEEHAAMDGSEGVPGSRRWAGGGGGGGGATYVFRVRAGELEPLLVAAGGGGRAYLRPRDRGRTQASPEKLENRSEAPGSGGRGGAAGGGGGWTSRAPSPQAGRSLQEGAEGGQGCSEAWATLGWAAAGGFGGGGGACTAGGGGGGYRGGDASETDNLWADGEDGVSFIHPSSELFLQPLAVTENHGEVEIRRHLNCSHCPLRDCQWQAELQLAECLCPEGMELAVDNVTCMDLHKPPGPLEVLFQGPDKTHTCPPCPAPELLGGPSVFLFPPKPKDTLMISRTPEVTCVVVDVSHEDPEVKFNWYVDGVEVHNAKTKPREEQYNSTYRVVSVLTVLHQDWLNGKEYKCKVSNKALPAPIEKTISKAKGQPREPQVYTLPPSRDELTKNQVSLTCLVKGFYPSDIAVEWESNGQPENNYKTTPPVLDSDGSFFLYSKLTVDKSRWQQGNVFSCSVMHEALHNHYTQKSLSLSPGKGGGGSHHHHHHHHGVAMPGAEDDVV
Description: as §1, §2

T1 sequence (chain, as listed by the source limits assumed): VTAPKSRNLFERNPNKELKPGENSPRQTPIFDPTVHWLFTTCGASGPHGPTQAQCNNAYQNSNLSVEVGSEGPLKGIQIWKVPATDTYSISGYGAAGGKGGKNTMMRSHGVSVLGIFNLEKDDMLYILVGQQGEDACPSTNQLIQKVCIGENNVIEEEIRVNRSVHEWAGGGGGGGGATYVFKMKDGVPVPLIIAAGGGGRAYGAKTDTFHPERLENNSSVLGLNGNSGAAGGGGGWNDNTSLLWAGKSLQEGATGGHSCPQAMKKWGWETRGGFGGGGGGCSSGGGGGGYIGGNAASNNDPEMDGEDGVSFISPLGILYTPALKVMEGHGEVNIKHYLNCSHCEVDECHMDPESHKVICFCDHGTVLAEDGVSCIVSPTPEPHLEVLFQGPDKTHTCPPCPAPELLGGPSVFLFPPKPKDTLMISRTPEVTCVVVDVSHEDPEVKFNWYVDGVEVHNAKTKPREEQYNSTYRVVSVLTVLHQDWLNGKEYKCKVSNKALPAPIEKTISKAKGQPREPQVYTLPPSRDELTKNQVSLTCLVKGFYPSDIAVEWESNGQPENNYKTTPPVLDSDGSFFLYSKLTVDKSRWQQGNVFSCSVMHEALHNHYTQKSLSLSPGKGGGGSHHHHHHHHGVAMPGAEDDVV

binding result (ALK 001P): binds | binding result (LTK 001P): binds
B1: Ligand 001P (ligand)
chain: DGHHHHHHGSLQDSEVNQEAKPEVKPEVKPETHINLKVSDGSSEIFFKIKKTTPLRRLMEAFAKRQGKEMDSLTFLYDGIEIQADQTPEDLDMEDNDIIEAHREQIGGLEVLFQGPAAGAGRTPSGSRSAEIFPRDSNLKDKFIKHFTGPVTFSPECSKHFHRLYYNTRECSTPAYYKRCARLLTRLAVSPLCSQT
